Reference: paper PMC12409452

Target: mitochondrial electron transport chain complex III2 (UniProt P22695)
Assay: BN-PAGE immunoblot (Ndufb8), band quantification
Details: A549 cells transfected with Ndufs1 plasmid; respirasome band CIn+CIIIn+CIVn normalised to free CI band; n = 3, mean ± SD; parent: est. 0.04; read off a plot

UniProt P22695, sequence (P22695 whole entry, looked up, one chain of several): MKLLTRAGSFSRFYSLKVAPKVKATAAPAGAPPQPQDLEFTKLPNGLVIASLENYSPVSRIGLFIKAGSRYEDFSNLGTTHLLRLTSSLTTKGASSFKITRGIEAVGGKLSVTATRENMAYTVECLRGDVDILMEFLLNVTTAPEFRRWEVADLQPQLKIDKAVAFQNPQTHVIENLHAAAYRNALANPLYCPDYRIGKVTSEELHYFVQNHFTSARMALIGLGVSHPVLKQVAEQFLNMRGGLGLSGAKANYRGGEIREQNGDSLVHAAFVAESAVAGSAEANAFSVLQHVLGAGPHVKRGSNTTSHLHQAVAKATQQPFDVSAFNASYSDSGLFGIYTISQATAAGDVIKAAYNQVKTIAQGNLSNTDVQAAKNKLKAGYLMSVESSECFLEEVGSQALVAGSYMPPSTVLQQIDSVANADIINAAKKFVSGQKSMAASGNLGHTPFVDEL

Row | other: Relative Respirasome level (vs CI) | Substance
1 | 1.9 | mitochondrial electron transport chain complex I with wild-type Ndufs1 (from UniProt P28331;O95169) C64D
2 | 1.9 | mitochondrial electron transport chain complex I with wild-type Ndufs1 (from UniProt P28331;O95169) C75D
3 | 1.4 | mitochondrial electron transport chain complex I with wild-type Ndufs1 (from UniProt P28331;O95169) C78D
4 | 1.5 | mitochondrial electron transport chain complex I with wild-type Ndufs1 (from UniProt P28331;O95169) C92D
5 | 0.15 | mitochondrial electron transport chain complex I with wild-type Ndufs1 (from UniProt P28331;O95169) C367D
6 | 1.1 | mitochondrial electron transport chain complex I with wild-type Ndufs1 (from UniProt P28331;O95169) C554D
7 | 1.2 | mitochondrial electron transport chain complex I with wild-type Ndufs1 (from UniProt P28331;O95169) C564D
8 | 1 | mitochondrial electron transport chain complex I with wild-type Ndufs1 (from UniProt P28331;O95169) C727D
